B1: TPR t1 (parent)
chain: GACCAAUCUGCCCUCAGAGCUCGAGAACAUCUUCGGAUGCAGAGGAGGCAGGCUUCGGUGGCGCGAUAGCGCCAACGUCCUCAACCUCCAAUGCAUCCCACCACAUGAUGAUGCCUGAAGAGCCUUGGUUUUUUG

Variants of: B1
Experiment: polymerase ribozyme fitness, log enrichment relative to wild type (log ratio); higher = more active; in vitro selection for triplet polymerase activity
Outline: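 Mutant libraries were PCR-built and transcribed for each subunit of a heterodimeric triplet polymerase ribozyme and selected for one round in triplicate at −7 °C, frozen, before gel excision of extended constructs and streptavidin-bead capture. Input and output libraries were Illumina-sequenced, keeping genotypes with ≥10 input reads and ≥1 read per output. Fitness is a logarithmic ratio of genotype to wild-type enrichment, in base 2, using inverse-variance-weighted replicate averages.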

Row | Variant | polymerase ribozyme fitness (log ratio)
1 | G45C G69A U87C U130C | -2.8
2 | G42U G44U C49A G69U U87G A119U G135A | -1.59
3 | C70G C73U | -2.63
4 | C13G G51A C97U A111G U129A | -6.21
5 | C8G G69U | 0.724
6 | A74C A90C C101G | -3.22
7 | C73G C123U | 0.00475
8 | C64U U130A | -0.073
9 | U67C C88A G117C | -5.9
10 | C8A G39A C79U | 0.0227
11 | C8U C11U C70U C73U C102A | -3.01
12 | G39C G77C C115U G128A | -4.5
13 | G48A G61U C64U A84U | -3.63
14 | C4A G61C C79G | -3.95
15 | U7G G42A G63C U81A U109A U130C | -6.25
16 | C34A C70A | -4.06
17 | G60C A83G | -1.24
18 | A90U A100C A119G | -2.07
19 | C12U G42A A95U | -1.64
20 | A6U C49A C53A C79A C85U A111C | -3.36
21 | G61U U109A U125A | -5.58
22 | C3A G39U | -2.46
23 | A6U U55C C76U | -0.164
24 | A6U G36A | -0.596

Row | Variant | polymerase ribozyme fitness (log ratio)
25 | G71A U106C | -1.36
26 | U78C U92C U96C U106A | -1.75
27 | G44U C82G | -1.77
28 | C34G C73A U116A A121U | -4.42
29 | G60C U81C U116A | -2.88
30 | C11U G45C | -1.59
31 | G60A G93C U132A | -1.25
32 | A37C G52C G117A | -2.76
33 | C11A C15G U21G G63U A90U G93U C115U C124U G127U | -6.26
34 | C15U G47U G52C C53A C124G | -1.51
35 | C28U G63U G77A C94A U112C | -6.92
36 | C8G G35C C89U | -4.98
37 | C13A C88G A105G G120U | -4.2
38 | U55G U96A | -1.38
39 | C11G A18C | -1.71
40 | G120C U130A | 0.0796
41 | C15U G69U C102A | -1.95
42 | A5G A43G C56U C80U | -2.61
43 | U9G G61U G77A C97G U130C | -5.47
44 | U30G C64U A121G | -4
45 | A83G U109C | -5.77
46 | C11A C40G U129A | -3.42
47 | U21A G45U C101U U106C | -4.17
48 | C4G C40G C115U | -3.42

Row | Variant | polymerase ribozyme fitness (log ratio)
49 | G93A U116C | -1.68
50 | G19U G39U G48A A111G | -4.12
51 | G69C U133A | -1.62
52 | C4G C101A | -2.61
53 | C115A G127U | -2.8
54 | C31U C115A G120A | -4.78
55 | G48U C56A C114G G127C | -5.92
56 | G10A G110A | -1.12
57 | C8G G48A G120C U125C | 1.03
58 | U14G G117A | -2.92
59 | A27U C72U C85G A111U U132A | -4.04
60 | U106A G110U U126A U130A | -3.03
61 | C49U U78C | -1
62 | C15U G52A G93A A95G | -2.44
63 | C11U C22A C124U | -3.19
64 | G47A A84C A121C | 0.928
65 | C70A U130A | -2.04
66 | A26U C72U C124U | -1.98
67 | C82A G127A | -2.18
68 | C62G C94U | -1.28
69 | C3G C86A | -3.1
70 | C12G A46U C102A | -2.85
71 | U9C G10C G17A G63A U81C U92A C94U U109G A119G | -7.69
72 | G69A A91U | -6.02

Row | Variant | polymerase ribozyme fitness (log ratio)
73 | U78C C114A | -1.63
74 | G44U G65A | -6.04
75 | G45C G60C U78A C89A G120C G127A | -5.17
76 | G93U G120C | -0.763
77 | C8G U116C | -0.0708
78 | A6U A27U G63A A121G U130A | -2.41
79 | G36A A68G | -3.57
80 | U96G G120A | -0.241
81 | C70G U132G U133A | -2.52
82 | C12U A50U C56G | -1.24
83 | G69U C98U C115A U130A | -1.03
84 | C11G C12G A46G G71U | -0.917
85 | C3U C40G C115A | -1.95
86 | A37C C56G G58A G63C G77C | -3.59
87 | G42U A43G C123A | -1.31
88 | C11G G23C U32C G61A C86U U133A | -5.64
89 | C15G C70G | -3.8
90 | C3A C62U G93C | -2.92
91 | A29G C104A | -2.84
92 | C72U U78C G117U G122A U130G | -2.87
93 | C12A G47A C72G G93A | -4.15
94 | C34A A100G | -5.07
95 | G47U G71A U112C | -0.298
96 | G48U C64A C86G A111G G135A | -6.11

Row | Variant | polymerase ribozyme fitness (log ratio)
97 | C12A C15A A43G A50U G61U | -6.06
98 | C4A G61A U78A G128U | -1.35
99 | G10C G36A | -1.22
100 | A100C G120A | 1.47
101 | A46C C49G C73U | -1.01
102 | C13G A66U C114A | -4.3
103 | A29U C82A | -2.3
104 | G47A C53G C101U U131A | -1.26
105 | G42C C56U C124A | 0.861
106 | U54C G71A C102A C123A | -3.7
107 | G48C C86U C115A | -1.07
108 | U78G C97A | -2.84
109 | G61C G63A | -4.78
110 | C88U G120A | -0.0108
111 | G57U U106G G128C | -3.98
112 | C8U A16U G77U C123U | 0.933
113 | C15G C79G | -4.93
114 | C64U C124U | 0.756
115 | C11G C123U | 0.785
116 | C94A G110C G120C | -6.12
117 | C8U A26U | -2.13
118 | C20A C85G | -3.75
119 | C4A G127A | -1.82
120 | G35U A75U C124A | -4.78

Row | Variant | polymerase ribozyme fitness (log ratio)
121 | C12G C40G G63A | -1.01
122 | G10U G19C A37U C72A C123G U130C | -1.39
123 | A16U A18C C86A | -4.71
124 | A66C G113C G120U | -5.98
125 | C12U A18C G52U C79A G127C | -2.61
126 | A6U C12U U81C | -0.545
127 | C12A A75U A111C | 0.286
128 | C12G A37C G60C A83U A91C G120U | -0.68
129 | C12G U14C C62U C85U C86U | -1.07
130 | C15U G39A | -3.08
131 | C15U G39C | -1.93
132 | C94U C99U U125A | -3.61
133 | C53U G61A A105C | -2.22
134 | G71C U92C | -2.76
135 | C12U C53G | -0.45
136 | C73U G113A G117A | -6.9
137 | C13U U30C A46U C73U | -5.98
138 | C8A U54G A105G U112A C123G C124A U132C | -1.56
139 | C11U C94G | -1.27
140 | A46C G47A C53A U78C | -1.4
141 | U7C G69A | -2.74
142 | G36U C64U C123G | 0.799
143 | C8G A18C G39C U133G | -2.2
144 | C11U C70A A121C | 0.0688

Row | Variant | polymerase ribozyme fitness (log ratio)
145 | U32C A46U G63C C104A G117C | -6.2
146 | C62U U116A G128A | -5.25
147 | G63U C94A A121C | -0.515
148 | C11G A18C U125A | -2.13
149 | A18G C124A | -0.403
150 | C22G G57A A68C C80A C101U C124A | -6.21
151 | U78G C86G U112A C124G G135U | -1.2
152 | U9C U92G | -1.58
153 | G45A C72U C89G A91C | -1.81
154 | G61C U78G U130G | -4.62
155 | G36C A37G C79A | -2.53
156 | C114U U129C | -3.79
157 | C94U A121G | 1.59
158 | A29U C53U C79U A111C G120C | -3.26
159 | A74C A90U | -0.572
160 | G17U C88A | -2.77
161 | G45U G57C G69U G110A U125A | -0.972
162 | G36A A121C | 0.979
163 | C72G C85G | -1.98
164 | U92C | -0.847
165 | G44C C53G G61A | -0.806
166 | C12U C79G C101U G120A | 0.377
167 | U9G C99U | -2.87
